The target of assay [1] is T1, human LAG3-mFc (human, UniProt P18627 23-450).
T1 construct: also called antigen human LAG3-mFc; not shown: mFc: Fc protein fragment of mouse IgG
T1 sequence (looked up): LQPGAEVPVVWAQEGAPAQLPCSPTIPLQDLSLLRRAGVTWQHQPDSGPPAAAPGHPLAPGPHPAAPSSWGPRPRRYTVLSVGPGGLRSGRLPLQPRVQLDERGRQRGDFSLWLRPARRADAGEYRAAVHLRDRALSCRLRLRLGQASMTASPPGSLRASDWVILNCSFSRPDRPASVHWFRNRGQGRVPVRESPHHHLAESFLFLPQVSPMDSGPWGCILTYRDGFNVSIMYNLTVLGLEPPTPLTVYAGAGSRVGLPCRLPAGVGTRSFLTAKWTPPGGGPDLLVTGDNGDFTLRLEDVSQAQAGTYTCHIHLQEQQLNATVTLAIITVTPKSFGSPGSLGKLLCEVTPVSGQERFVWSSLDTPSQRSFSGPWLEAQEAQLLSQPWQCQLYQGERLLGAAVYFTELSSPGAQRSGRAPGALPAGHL
Briefly: competitive flow cytometry: antibody titrated against 3 nM LAG3-mFc binding to MHC II on Raji cells. Here is the method:
Raji cells (medium: 1640+10% FBS) (Cell Resource Center, Shanghai Institutes for Biological Sciences, Chinese Academy of Sciences, Cat. No. TCHu 44) were added into EP tubes at 300,000 cells per sample. 1000 μL of 1% PBSA (PBS containing 1% BSA) was added. The mixture was centrifuged at 600×g for 5 min, and the supernatant was discarded. […] The mixture was mixed well and pre-incubated on ice for 30 min. 100 μL of the pre-incubated mixture of antibody and protein was added to the sample. The mixture was mixed well and incubated on ice in the dark for 1 h; 200 μL of 1% PBSA was added, and the mixture was centrifuged at 600×g for 5 min, followed by removal of the supernatant, and then washed twice; 100 μL of an APC anti mouse antibody (purchased from Biolegend, Cat. No. 405308) (diluted at a 1:400 ratio) was added, and the mixture was mixed well and incubated on ice in the dark for 40 min; 200 μL of 1% PBSA was added, and the mixture was centrifuged at 600×g for 5 min, followed by removal of the supernatant; 200 μL of Washing Buffer was added into each tube to resuspend the cells, and then the suspension was transferred to a sample loading tube for testing on a flow cytometer.
A general note: Flow cytometry measures light scatter and fluorescence of single cells or particles in a stream.

Assay [2] deals with T2, human LAG3 (full length) expressed on cells (human, UniProt P18627 23-525).
T2 construct: whole, on cells; also called huLAG3FL
T2 sequence (looked up): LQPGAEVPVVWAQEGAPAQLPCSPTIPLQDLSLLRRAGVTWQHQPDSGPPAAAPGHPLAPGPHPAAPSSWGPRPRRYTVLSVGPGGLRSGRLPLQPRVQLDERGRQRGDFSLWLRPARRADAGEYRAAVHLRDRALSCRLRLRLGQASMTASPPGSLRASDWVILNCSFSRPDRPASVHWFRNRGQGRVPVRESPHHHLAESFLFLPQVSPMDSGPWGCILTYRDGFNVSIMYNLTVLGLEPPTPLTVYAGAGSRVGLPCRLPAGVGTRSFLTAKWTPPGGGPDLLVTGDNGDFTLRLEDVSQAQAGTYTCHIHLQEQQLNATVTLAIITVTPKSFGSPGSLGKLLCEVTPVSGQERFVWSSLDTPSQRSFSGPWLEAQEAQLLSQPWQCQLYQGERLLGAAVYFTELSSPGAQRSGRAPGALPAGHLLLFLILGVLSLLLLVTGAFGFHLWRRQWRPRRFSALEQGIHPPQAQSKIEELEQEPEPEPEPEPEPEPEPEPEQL
Briefly: flow cytometry on 293T-LAG3 cells. Here is the method: After centrifugation and washing several times with 1% PBSA, 100 μL of FITC goat anti-human IgG (purchased from Jackson, Cat. No. 109-095-098) (diluted at a 1:500 ratio) was added into each tube, and the mixture was incubated on ice in the dark for 40 min. After washing once with 1% PBSA, 200 μL of 1% PBSA was added to resuspend the cells. Fluorescence signals were detected with FITC channel on a flow cytometer.

The target in assay [3] is T1, human LAG3-mFc. Briefly: ELISA, human LAG3-mFc coated 2 ug/mL. Here is the method:
Then the ELISA plate coated with the antigen was washed once with PBST and then blocked with a PBS solution containing 1% BSA as a blocking solution at 37° C. for 2 h. After blocking, the ELISA plate was washed 3 times with PBST. The ELISA plate containing the test antibodies was incubated at 37° C. for 30 min and then washed 3 times with PBST. After washing, a working solution of an HRP-labeled goat anti-human IgG (H+L) (Jackson, Cat. No. 109-035-088) secondary antibody diluted at a ratio of 1:5000 was added, and then the plate was incubated at 37° C. for 30 min. After incubation, the plate was washed 4 times with PBST, TMB (Neogen, 308177) was added for chromogenesis in the dark for 5 min, and then a stop solution was added to terminate the chromogenic reaction. The ELISA plate was put into an ELISA plate reader immediately, and the OD value of each well in the ELISA plate was read at 450 nm. The data were analyzed and processed by SoftMax Pro 6.2.1.

What is called EC50 is the concentration needed to bring the measured effect to its halfway point. A high value points to a need for much substance.

B1: H7L9(hG4WT) (antibody, human IgG4 S228P, kappa, V domains shown)
VH: QVQLQQWGAGLLKPSETLSLTCAVYGGSISDYYWNWIRQPPGKGLEWIGEINHRGTTNSNPSLKSRVTLSLDTSKNQFSLKLRSVTAADTAVYYCAFGYSDYEYDWFDPWGQGTLVTVSS
VL: EIVLTQSPATLSLSPGERATLSCRASQTISSYLAWYQQKPGQAPRLLIYDGSNRATGIPARFSGSGSGTDFTLTISSLEPEDFAVYYCQQRSNWPLTFGQGTNLEIKR
notes: Humanized anti-LAG3 IgG4 (Ig gamma-4 chain C region) with human kappa constant region
For the molecule B1, the half-maximal effective concentration (EC50) amounted to 1.32 nM with human LAG3-mFc [1], 4.81 nM in assay [2] and 0.142 nM with human LAG3-mFc [3].

B2: H7L10(hG4WT) (antibody, human IgG4 S228P, kappa, V domains shown)
VH: QVQLQQWGAGLLKPSETLSLTCAVYGGSISDYYWNWIRQPPGKGLEWIGEINHRGTTNSNPSLKSRVTLSLDTSKNQFSLKLRSVTAADTAVYYCAFGYSDYEYDWFDPWGQGTLVTVSS
VL: EIVLTQSPATLSLSPGERATLSCRASQSISSYLAWYQQKPGQAPRLLIYDGSNRATGIPARFSGSGSGTDFTLTISSLEPEDFAVYYCQQRSNWPITFGQGTNLEIKR
notes: as for B1
Regarding B2, the EC50 was 1.27 nM with human LAG3-mFc [1], 4.17 nM in assay [2] and 0.157 nM with human LAG3-mFc [3].

For the origin of these results see US20250042995A1 (AKESO BIOPHARMA, published 2025).
